# Experimental data reported in US20210230279A1.
# What was measured:
# [1] = target: recombinant human integrin αvβ6 (human) (UniProt P18564)
# [2] = target: recombinant human integrin αvβ6 (human) (UniProt P18564); assay: blocking of adhesion (A590) of Cho cells expressing GARP/LTGFB1 to immobilized αvβ6; antibody concentration varied; unit taken from the axis log[Agonist], (ug/ml)
# [3] = target: recombinant human integrin αvβ6 (human) (UniProt P18564); assay: competition of 3G9 with RGD3 for binding to αvβ6 (sheet title); y axis 'Relative Inhibition of avb6 binding to TGFb3 peptide'; signal falls from about 1.03 to about 0.04 at log 4
# Chain of recombinant human integrin αvβ6 (human) (chain, as listed by the source limits assumed, chain 1 of 2): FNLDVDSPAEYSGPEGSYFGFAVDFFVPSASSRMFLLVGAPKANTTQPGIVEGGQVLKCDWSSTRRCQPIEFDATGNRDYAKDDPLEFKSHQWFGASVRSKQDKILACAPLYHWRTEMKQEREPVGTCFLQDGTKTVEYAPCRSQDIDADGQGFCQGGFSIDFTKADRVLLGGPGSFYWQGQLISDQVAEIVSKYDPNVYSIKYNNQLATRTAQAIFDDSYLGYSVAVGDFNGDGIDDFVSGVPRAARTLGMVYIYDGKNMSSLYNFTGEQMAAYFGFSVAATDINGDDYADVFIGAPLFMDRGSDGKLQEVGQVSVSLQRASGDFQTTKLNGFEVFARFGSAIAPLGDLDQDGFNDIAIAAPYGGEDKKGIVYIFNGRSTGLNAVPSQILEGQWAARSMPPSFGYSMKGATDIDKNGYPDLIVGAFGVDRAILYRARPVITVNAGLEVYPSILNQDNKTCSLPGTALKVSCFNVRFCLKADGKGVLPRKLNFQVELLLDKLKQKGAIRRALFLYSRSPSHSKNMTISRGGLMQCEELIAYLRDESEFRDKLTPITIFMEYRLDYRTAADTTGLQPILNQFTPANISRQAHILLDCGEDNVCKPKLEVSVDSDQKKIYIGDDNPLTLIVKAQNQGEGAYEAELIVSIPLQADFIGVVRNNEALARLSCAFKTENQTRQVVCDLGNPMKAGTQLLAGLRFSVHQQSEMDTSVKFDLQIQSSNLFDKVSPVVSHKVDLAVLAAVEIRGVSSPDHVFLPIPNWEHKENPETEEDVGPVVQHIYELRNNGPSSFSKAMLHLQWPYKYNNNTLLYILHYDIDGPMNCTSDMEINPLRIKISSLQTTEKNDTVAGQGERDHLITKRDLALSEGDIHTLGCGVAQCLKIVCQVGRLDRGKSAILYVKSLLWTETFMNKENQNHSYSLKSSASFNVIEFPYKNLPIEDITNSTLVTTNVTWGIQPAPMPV
# Chain of recombinant human integrin αvβ6 (human) (P18564 22-707 limits assumed, chain 2 of 2): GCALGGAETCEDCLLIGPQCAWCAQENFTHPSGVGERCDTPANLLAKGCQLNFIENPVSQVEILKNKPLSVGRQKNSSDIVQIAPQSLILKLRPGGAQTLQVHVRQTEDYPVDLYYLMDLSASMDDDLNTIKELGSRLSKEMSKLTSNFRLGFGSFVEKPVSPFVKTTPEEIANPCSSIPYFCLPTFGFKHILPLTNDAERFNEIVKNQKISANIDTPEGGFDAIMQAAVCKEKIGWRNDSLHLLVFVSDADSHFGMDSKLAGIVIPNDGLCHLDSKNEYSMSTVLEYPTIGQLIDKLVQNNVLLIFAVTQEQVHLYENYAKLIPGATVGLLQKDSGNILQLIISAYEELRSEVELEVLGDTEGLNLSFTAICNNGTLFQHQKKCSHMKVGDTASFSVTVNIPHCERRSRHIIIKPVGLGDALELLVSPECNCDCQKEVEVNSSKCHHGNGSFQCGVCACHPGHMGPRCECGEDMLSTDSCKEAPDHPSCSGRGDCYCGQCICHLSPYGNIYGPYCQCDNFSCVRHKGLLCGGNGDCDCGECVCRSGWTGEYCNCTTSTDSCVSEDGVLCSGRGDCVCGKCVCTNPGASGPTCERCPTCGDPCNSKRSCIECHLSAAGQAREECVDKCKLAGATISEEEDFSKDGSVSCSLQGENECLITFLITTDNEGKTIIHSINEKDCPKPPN
substance,measurement,setting,value
Mab 3G9 (anti-β6) (antibody),EC50 of inhibition of TGF-β activation (TMLC luciferase reporter) of GARP/LTGFB1 Cho cells on immobilized αvβ6; unit from the axis,[1],0.922 µg/mL
same,EC50,[2],0.834 µg/mL
same,LogEC50 (Log10 (ng/ml)),[3],2.93
